Source: patent publication US20240270857A1 (CHIA TAI TIANQING PHARMACEUTICAL GROUP, published 2024)

Tests used:
[1] = molecular target: T1, Human IL-1Rrp2/IL-1R6 protein, His Tag (ACROBiosystems, IL2-H52H6) (human, UniProt Q9HB29 20-335); experiment: BLI (ForteBio Octet), antibody on ProA sensor, 1:1 model
T1 construct: Bought protein; the soluble protein is likely only the extracellular part; also called hIL-36R; human IL36R antigen; not shown: His tag
T1 sequence: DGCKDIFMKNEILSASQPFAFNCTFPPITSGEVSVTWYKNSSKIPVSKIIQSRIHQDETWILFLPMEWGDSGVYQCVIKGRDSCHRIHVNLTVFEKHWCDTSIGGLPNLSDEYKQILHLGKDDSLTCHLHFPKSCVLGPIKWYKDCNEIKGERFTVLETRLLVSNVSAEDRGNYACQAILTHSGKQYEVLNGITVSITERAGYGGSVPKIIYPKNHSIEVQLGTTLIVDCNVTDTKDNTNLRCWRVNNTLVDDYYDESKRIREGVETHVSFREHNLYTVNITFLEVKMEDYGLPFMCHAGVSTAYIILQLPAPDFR
Method: The affinity of anti-IL-36R antibodies to CynoIL36R-ECD mFc and human IL-1Rrp2/IL-IR6 protein, His Tag (ACROBiosystems, IL2-H52H6) was measured by a ForteBio molecular interaction instrument. […] And then the biosensor was used to bind CynoIL36R-ECD mFc or human IL-1Rrp2/IL-1R6 protein, His Tag which was diluted by a gradient (the initial concentration was 200 nM, 2-fold gradient dilution), the response signals were detected in real time using a Fortebio molecular interaction instrument (SARTORIUS, octet red 96e), and association and dissociation curves were obtained. After the completion of dissociation in each cycle, the biosensor was regenerated for the next capture; the procedure was repeated until the affinity of the different anti-IL-36R antibodies for IL-36R was determined. The resulting data were analyzed by Fortebio Data Analysis 11.0 software in a 1:1 (Langmuir) binding model to determine kₐ (kₒₙ) and kd (koff) values, and the dissociation constant KD was calculated by KD=kd/kₐ. The detection method essentially followed the manufacturer's recommendations, and more information could be found at www.fortebio.com.

[2] = molecular target: T2, IL-36R naturally expressed on OVCAR8 cells and on normal human epidermal keratinocytes (NHK cells) (human, UniProt Q9HB29 20-575); experiment: cell-based or functional assay
T2 sequence (looked up): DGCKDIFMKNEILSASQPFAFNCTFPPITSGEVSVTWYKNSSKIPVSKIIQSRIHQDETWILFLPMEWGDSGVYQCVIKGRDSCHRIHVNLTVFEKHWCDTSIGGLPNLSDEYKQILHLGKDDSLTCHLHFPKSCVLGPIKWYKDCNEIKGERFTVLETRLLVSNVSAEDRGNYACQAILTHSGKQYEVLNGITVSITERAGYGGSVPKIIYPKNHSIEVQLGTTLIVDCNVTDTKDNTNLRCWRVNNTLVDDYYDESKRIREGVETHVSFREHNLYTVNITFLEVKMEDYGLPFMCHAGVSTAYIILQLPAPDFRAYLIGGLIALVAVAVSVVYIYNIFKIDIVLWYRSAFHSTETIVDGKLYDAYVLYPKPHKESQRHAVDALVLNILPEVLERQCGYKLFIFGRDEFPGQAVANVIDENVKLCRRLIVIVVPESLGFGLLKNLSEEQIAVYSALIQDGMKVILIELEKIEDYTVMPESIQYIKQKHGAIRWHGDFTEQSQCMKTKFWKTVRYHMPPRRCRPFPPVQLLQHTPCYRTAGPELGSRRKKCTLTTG

[3] = molecular target: T3, human IL-36R overexpressed on 293T-hIL36R-NFκB cells (human, UniProt Q9HB29 20-575); experiment: cell-based or functional assay
T3 sequence: T2 sequence (looked up)

[4] = molecular target: T3, human IL-36R overexpressed on …; experiment: FACS on 293T-hIL36R-NFκB cells, ratio of MFI to background MFI
Method: After the cells was washed with PBS, the cells were resuspended with 100 μL of PBS and then the fluorescence signal was detected using a flow cytometer (BD, Accuri C6). […] The ratio was the ratio of mean fluorescence intensity (MFI) of the experimental group/the background MFI, and the resulting data were analyzed using GraphPad Prism.

[5] = molecular target: T3, human IL-36R overexpressed on …; experiment: cell-based or functional assay; remark: listed apart in the source
[6] = molecular target: T3, human IL-36R overexpressed on …; experiment: cell-based or functional assay; remark: listed apart in the source
[7] = molecular target: T2, IL-36R naturally expressed on OVCAR8 …; experiment: cell-based or functional assay; remark: listed apart in the source
[8] = molecular target: T2, IL-36R naturally expressed on OVCAR8 …; experiment: cell-based or functional assay; remark: listed apart in the source

- Kd [1]: 4.72 nM
- koff [1]: 0.000332 s⁻¹
- kon [1]: 70400 M⁻¹ s⁻¹
- IC50; IL-8 production of OVCAR8 cells stimulated with hIL36γ, inhibition rate % [2]: 1.05 nM
- IC50; NFκB-luciferase reporter in 293T-hIL36R-NFκB cells stimulated with hIL36β, inhibition rate % [3]: 21.5 nM
- EC50 [4]: 15.5 nM
- IC50; NFκB-luciferase reporter in 293T-hIL36R-NFκB cells stimulated with hIL36γ, inhibition rate % [5]: 25.4 nM
- IC50; NFκB-luciferase reporter in 293T-hIL36R-NFκB cells stimulated with hIL36α, inhibition rate % [6]: 12.9 nM
- IC50; IL-8 production of OVCAR8 cells stimulated with hIL36α, inhibition rate % [7]: 0.73 nM
- IC50; IL-8 production of OVCAR8 cells stimulated with hIL36β, inhibition rate % [8]: 0.972 nM
B1: chimeric 74B4D6 antibody (antibody, human IgG4 S228P, kappa, V domains shown)
VH: EVQLQQPGAELGKPGASVKMACKASGYTFTNYWIHWVKQRPGQGLEWIGTIDPSENYTNYNQKFKGKATLTVDTSSSTAYMQLSSLTSEDKAVYFCTGSSFSYWGQGTLVTVSA
VL: QNVLTQSPAIMSVSPGEKVTMTCSASSSVSFIHWFQQKPGTSPKLWIYTTSNLASGVPARFSGSGSGTSYSLTISRMEAEDAATYYCQQRSSYPLTFGAGTKLELKR
notes: Mouse variable regions on human IgG4 / kappa; also called xi74B4D6
